Measurements from US20250109171A1, “COMPOUNDS AND COMPOSITIONS FOR TARGETED THERAPY OF RENAL DISEASES” (SHANGHAI MICURX PHARMACEUTICALS CO., LTD., priority 2021, published 2025).
Positions of bridges follow the written chain, without caps; N, C: chain ends. Non-standard residues stand in square brackets, D forms with d. Residues, ends and D or L forms follow the SMILES beside them. *: point of attachment. Succinyl(O21-dexamethasone) = C[C@@H]1C[C@H]2[C@@H]3CCC4=CC(=O)C=C[C@]4(C)[C@@]3(F)[C@@H](O)C[C@]2(C)[C@@]1(O)C(=O)COC(=O)CCC(=O)*; X1 = CC(C(=O)OCC(=O)[C@@]1(O)[C@H](C)C[C@H]2[C@@H]3CCC4=CC(=O)C=C[C@]4(C)[C@@]3(F)[C@@H](O)C[C@@]21C)C(C)C(=O)*; Dab = NCC[C@H](N)C(=O)O

Tests used:
[1] = Rodent (mouse) PK model of intravenous administration: dexamethasone levels in kidney tissue; type: in vivo; conditions: for Kidney drug (dexamethasone) concentration: T = 24 h, the last time point evaluated; for Kidney dexamethasone levels greater than those achieved through injection of unconjugated dexamethasone: drug concentration in kidney tissue, summary of Table 1
Protocol: Preferential renal targeting validating the delivery of compounds provided herein into kidneys (or at the site of a kidney injury) is evaluated, for example, by pharmacokinetic (PK) tests, such as in a standard rodent PK test. PK data are generally used to establish the key parameters predictive of the therapy outcome. Thus, a drug concentration (C) at given time points, drug concentration at the target tissue(s) (CTarget), area under the curve (AUC) for a plot monitoring the change in the systemic drug concentration over time and other parameters are generally predictive of therapeutic efficacy. For example, drug concentration at an organ affected by cancer is important for effective action of anticancer agents (as described, for example, by Zhang et al. in Drug Metabolism and Disposition. 2019, vol. 47, p. 1122).
Representative compounds provided herein were tested in a rodent PK model of intravenous administration performed analogously to methods described in the monograph Current Protocols in Pharmacology, 2005, 7.1.1-7.1.26, John Wiley & Sons, Inc. Illustrative mouse PK data for the compounds of Examples 1 and 2 are summarized in the Table 1 below.

[2] = tested on: cisplatin-induced acute kidney injury (AKI); test: Cisplatin-induced acute kidney injury mouse model (blood CREA and BUN on day 3); type: in vivo, C57BL/6 mouse; conditions: cisplatin 20 mg/kg i.p.; test articles i.v. after 1 h, 4 mg/kg; about 20% dexamethasone equivalent dosing; FIG. 1
Protocol: Specifically, in one of the tests, cisplatin (20 mg/kg) was administrated to C57BL/6 mouse (male, weight range 20-25 g) by intraperitoneal injection to induce acute kidney injury. After 1 h, testing articles (saline, or dexamethasone, or a compound of Example 1 or 2) were given by intravenously. On day 3, blood CREA (creatinine) and BUN (blood urea nitrogen) were determined.

[3] = T = 3 h, injection into mouse tail vein
[4] = T = 3 h, injection into mouse tail vein, dexamethasone 1 mg/kg, Examples 4 mg/kg

Row | Structure (SMILES) | Enhanced dexamethasone levels in kidney expressed per ratio vs. dosing of free dexamethasone [1, 3] | Drug levels from standard injection of unconjugated drug ([1]; after only 6 h) | concentration at 3 h ([1]; kidney, intravenous, T = 3 h, injection into mouse tail vein, dexamethasone 1 mg/kg, Examples 4 mg/kg, read-out: Kidney tissue concentration (dexamethasone levels in kidneys)) [ng/g] | Kidney tissue concentration (dexamethasone levels in kidneys) [1, 4] [ng/g] | Kidney drug (dexamethasone) concentration [1] [ng/g] | Kidney dexamethasone levels greater than those achieved through injection of unconjugated dexamethasone [1] | Anti-inflammatory efficacy in the AKI model per BUN and CREA values, compared to dexamethasone [2]
1 | C[C@@H]1C[C@H]2[C@@H]3CCC4=CC(=O)C=C[C@]4(C)[C@@]3(F)[C@@H](O)C[C@]2(C)[C@@]1(O)C(=O)CO [Dexamethasone, dexamethasone, reference compound] | 1 | virtually undetectable | 13 | – | – | – | –
2 | CC(C)C[C@@H]1NC(=O)[C@@H](Cc2ccccc2)NC(=O)[C@H](CCN)NC(=O)[C@@H](NC(=O)[C@H](CCN)NC(=O)[C@@H](NC(=O)C(C)C(C)C(=O)OCC(=O)[C@@]2(O)[C@H](C)C[C@H]3[C@@H]4CCC5=CC(=O)C=C[C@]5(C)[C@@]4(F)[C@@H](O)C[C@@]32C)[C@@H](C)O)CCNC(=O)[C@H]([C@@H](C)O)NC(=O)[C@H](CCN)NC(=O)[C@H](CCN)NC1=O (stereo partly shown) [Example 1] (X1-T[Dab][Dab][Dab][dF]L[Dab][Dab]T; lactam 3-C) | 9.4 | – | – | 122.2 | 21.5 | about 9 fold | greatly increased anti-inflammatory efficacy
3 | CC(C)C[C@@H]1NC(=O)[C@@H](Cc2ccccc2)NC(=O)[C@H](CCN)NC(=O)[C@@H](NC(=O)[C@H](CCN)NC(=O)[C@@H](NC(=O)CCC(=O)OCC(=O)[C@@]2(O)[C@H](C)C[C@H]3[C@@H]4CCC5=CC(=O)C=C[C@]5(C)[C@@]4(F)[C@@H](O)C[C@@]32C)[C@@H](C)O)CCNC(=O)[C@H]([C@@H](C)O)NC(=O)[C@H](CCN)NC(=O)[C@H](CCN)NC1=O [Example 2] ({Succinyl(O21-dexamethasone)}-T[Dab][Dab][Dab][dF]L[Dab][Dab]T; lactam 3-C) | 7.2 | – | – | 93.4 | 18.5 | ~7 fold | greatly increased anti-inflammatory efficacy
